From doi:10.1101/2025.03.17.643777, “Closed State Structure of the Pore Revealed by Uncoupled Shaker K^+ Channel” (bioRxiv, 2025)

Molecular target: the molecule itself
Test: cryo-EM structure; single-particle cryo-EM of the purified channel in 0.02% GDN, 150 mM KCl, 50 mM TRIS pH 7.5; C4 symmetry imposed

B1: Shaker-IR-I384R (natural protein, UniProt P08510 1-655, looked up)
chain: MAAVALREQQLQRNSLDGYGSLPKLSSQDEEGGAGHGFGGGPQHFEPIPHDHDFCERVVINVSGLRFETQLRTLNQFPDTLLGDPARRLRYFDPLRNEYFFDRSRPSFDAILYYYQSGGRLRRPVNVPLDVFSEEIKFYELGDQAINKFREDEGFIKEEERPLPDNEKQRKVWLLFEYPESSQAARVVAIISVFVILLSIVIFCLETLPEFKHYKVFNTTTNGTKIEEDEVPDITDPFFLIETLCIIWFTFELTVRFLACPNKLNFCRDVMNVIDIIAIIPYFITLATVVAEEEDTLNLPKAPVSPQDKSSNQAMSLAILRVIRLVRVFRIFKLSRHSKGLQRLGRTLKASMRELGLLIFFLFIGVVLFSSAVYFAEAGSENSFFKSIPDAFWWAVVTMTTVGYGDMTPVGVWGKIVGSLCAIAGVLTIALPVPVIVSNFNYFYHRETDQEEMQSQNFNHVTSCPYLPGTLGQHMKKSSLSESSSDMMDLDDGVESTPGLTETHPGRSAVAPFLGAQQQQQQPVASSLSMSIDKQLQHPLQQLTQTQLYQQQQQQQQQQQNGFKQQQQQTQQQLQQQQSHTINASAAAATSGSGSSGLTMRHNNALAVSIETDV
notes: built on the Shaker-IR model PDB 7SIP; The C-terminal HRV 3C site was cut to release the channel from the beads, so residues of the site may remain; also called uncoupled channel; completely uncoupled I384R mutant; not shown: eGFP, C-terminal, cleaved; 8xHis, C-terminal, cleaved
stoichiometry N: 4
